Reference: the supplement of paper PMC10065799, “High-throughput profiling of sequence recognition by tyrosine kinases and SH2 domains using bacterial peptide display” (eLife, 2023)

Tested on: AncSZ
Experiment: phosphorylation enrichment, bacterial display (enrichment ratio); higher = better substrate or ligand; peptides without Tyr show the background
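Further: 11-residue human phosphosite peptides and single-mutation variants displayed on the E. coli surface, counted by deep sequencing, each peptide's frequency after selection divided by its frequency in the unselected input library; frequency after pTyr selection over input frequency; kinase dosed for 20-30% of maximal phosphorylation in three min.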

Row | Sequence | phosphorylation enrichment
1 | KNNDGYTDFAE [MCFD2_Y135_I136T_YF] | 0.999
2 | LITTLYISFLG [KCNQ1_Y267_G269S] | 1.47
3 | FKEIVYAVSSD [DCX_Y70_G67E] | 1.32
4 | RGKDSYETSQL [SPP1_Y225] | 0.681
5 | LKKLEYLNLAL [LRRC6_Y70] | 1.05
6 | QNAGDYFDLFG [PTPN11_Y62_T59A_YF] | 6.62
7 | QSHKVYVQHLL [POR_Y604] | 0.919
8 | IHSGIYYKPES [L2HGDH_Y102] | 1.45
9 | TEAEPYFCSLR [NPHS1_Y1138_R1140C_YF] | 1.11
10 | PDNEPYIFKVF [PIK3AP1_Y553] | 2.37
11 | LKGQVYILVRE [ASS1_Y359_G362V] | 1.43
12 | RNAAEYLLSSG [ABL1_Y139] | 0.765
13 | EDGCIYPGTIA [SMN1_Y109_A111G] | 0.947
14 | VNKIFHPDFIV [LIG3_Y768_Y768H_YF] | 0.793
15 | ALKWGYTVKGI [OAT_Y158_R154L] | 1.13
16 | GISDEYHVIRH [GCDH_Y398] | 0.917
17 | DFFDLYGGQKF [PTPN11_Y66_E69Q_YF] | 1.13

Row | Sequence | phosphorylation enrichment
18 | FPLAEYTEVKT [ALDH1A3_Y497_A493P_YF] | 1.34
19 | VSSSDYFSFVL [USP24_Y2138_Y2134S] | 3.42
20 | QEGPEYWDQNT [HLA-A_Y83_E87N] | 1.5
21 | LSDGPYSNSFE [EPOR_Y485_P488S_YF] | 1.49
22 | SSMIDYNTLEK [MYOC_Y479_P481T] | 0.792
23 | GEDEPYSEPYA [APBA1_Y183] | 1.35
24 | NWGKKYPTCNS [PTPRZ1_Y53] | 0.771
25 | HEVHIYEKSGA [ARPC1B_Y35] | 1.38
26 | FSAPNYCYRCG [PPP2CA_Y265] | 0.656
27 | YQSKHYACIRQ [TIMP3_Y182] | 0.673
28 | HNVAIYEGFAL [ACTC1_Y168_P166A_YF] | 1.28
29 | ILGTYYETGSI [PAX2_Y73_R71T] | 0.971
30 | ILGTFYETGSI [PAX2_Y73_R71T_YF] | 0.773
31 | FESPRYLQVHI [FANCA_Y488] | 0.928
32 | REEIKYMLWLS [OTC_Y55_G50R] | 1.23
33 | ANVKWYRSGRE | 0.875

Molecular target: EPHB1 (UniProt P54762)
Sequence (P54762 whole entry, looked up): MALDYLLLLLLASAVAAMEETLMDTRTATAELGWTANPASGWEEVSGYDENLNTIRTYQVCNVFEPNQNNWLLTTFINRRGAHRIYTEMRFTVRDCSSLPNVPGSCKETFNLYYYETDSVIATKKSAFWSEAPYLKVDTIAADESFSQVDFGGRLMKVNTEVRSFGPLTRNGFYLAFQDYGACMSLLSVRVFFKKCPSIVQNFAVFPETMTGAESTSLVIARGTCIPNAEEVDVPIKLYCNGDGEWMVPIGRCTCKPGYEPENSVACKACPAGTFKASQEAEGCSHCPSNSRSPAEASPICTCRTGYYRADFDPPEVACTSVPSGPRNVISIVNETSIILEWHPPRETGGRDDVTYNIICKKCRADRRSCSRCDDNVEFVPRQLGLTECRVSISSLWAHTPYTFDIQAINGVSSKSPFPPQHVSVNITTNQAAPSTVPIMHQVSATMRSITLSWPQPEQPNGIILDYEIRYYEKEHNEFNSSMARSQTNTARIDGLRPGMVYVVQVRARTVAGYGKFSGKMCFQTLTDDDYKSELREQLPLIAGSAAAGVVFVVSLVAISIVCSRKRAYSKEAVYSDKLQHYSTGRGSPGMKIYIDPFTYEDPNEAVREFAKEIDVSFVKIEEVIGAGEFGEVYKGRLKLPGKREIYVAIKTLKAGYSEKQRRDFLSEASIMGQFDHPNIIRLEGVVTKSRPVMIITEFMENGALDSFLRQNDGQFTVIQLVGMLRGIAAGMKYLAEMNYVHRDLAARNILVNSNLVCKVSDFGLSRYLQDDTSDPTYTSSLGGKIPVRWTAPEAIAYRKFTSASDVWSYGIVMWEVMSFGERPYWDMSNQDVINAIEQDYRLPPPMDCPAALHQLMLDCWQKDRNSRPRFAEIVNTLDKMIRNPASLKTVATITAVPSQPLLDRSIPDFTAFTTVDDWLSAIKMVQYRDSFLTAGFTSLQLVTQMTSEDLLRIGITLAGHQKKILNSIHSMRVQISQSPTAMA
Experiment: as above

Row | Sequence | phosphorylation enrichment
34 | KNNDGYTDFAE [MCFD2_Y135_I136T_YF] | 0.578
35 | LITTLYISFLG [KCNQ1_Y267_G269S] | 0.852
36 | FKEIVYAVSSD [DCX_Y70_G67E] | 0.455
37 | RGKDSYETSQL [SPP1_Y225] | 0.552
38 | LKKLEYLNLAL [LRRC6_Y70] | 0.81
39 | QNAGDYFDLFG [PTPN11_Y62_T59A_YF] | 21.9
40 | QSHKVYVQHLL [POR_Y604] | 0.444
41 | IHSGIYYKPES [L2HGDH_Y102] | 3.93
42 | TEAEPYFCSLR [NPHS1_Y1138_R1140C_YF] | 0.565
43 | PDNEPYIFKVF [PIK3AP1_Y553] | 0.684
44 | LKGQVYILVRE [ASS1_Y359_G362V] | 0.682
45 | RNAAEYLLSSG [ABL1_Y139] | 0.38
46 | EDGCIYPGTIA [SMN1_Y109_A111G] | 0.7
47 | VNKIFHPDFIV [LIG3_Y768_Y768H_YF] | 0.487
48 | ALKWGYTVKGI [OAT_Y158_R154L] | 0.447
49 | GISDEYHVIRH [GCDH_Y398] | 0.458
50 | DFFDLYGGQKF [PTPN11_Y66_E69Q_YF] | 0.464

Row | Sequence | phosphorylation enrichment
51 | FPLAEYTEVKT [ALDH1A3_Y497_A493P_YF] | 0.685
52 | VSSSDYFSFVL [USP24_Y2138_Y2134S] | 4.7
53 | QEGPEYWDQNT [HLA-A_Y83_E87N] | 0.898
54 | LSDGPYSNSFE [EPOR_Y485_P488S_YF] | 0.982
55 | SSMIDYNTLEK [MYOC_Y479_P481T] | 0.428
56 | GEDEPYSEPYA [APBA1_Y183] | 0.542
57 | NWGKKYPTCNS [PTPRZ1_Y53] | 0.507
58 | HEVHIYEKSGA [ARPC1B_Y35] | 1.1
59 | FSAPNYCYRCG [PPP2CA_Y265] | 0.498
60 | YQSKHYACIRQ [TIMP3_Y182] | 0.462
61 | HNVAIYEGFAL [ACTC1_Y168_P166A_YF] | 11.1
62 | ILGTYYETGSI [PAX2_Y73_R71T] | 2.54
63 | ILGTFYETGSI [PAX2_Y73_R71T_YF] | 0.466
64 | FESPRYLQVHI [FANCA_Y488] | 0.782
65 | REEIKYMLWLS [OTC_Y55_G50R] | 0.697
66 | ANVKWYRSGRE | 0.401

Molecular target: EPHB2 (UniProt P29323)
Sequence (P29323 whole entry, looked up): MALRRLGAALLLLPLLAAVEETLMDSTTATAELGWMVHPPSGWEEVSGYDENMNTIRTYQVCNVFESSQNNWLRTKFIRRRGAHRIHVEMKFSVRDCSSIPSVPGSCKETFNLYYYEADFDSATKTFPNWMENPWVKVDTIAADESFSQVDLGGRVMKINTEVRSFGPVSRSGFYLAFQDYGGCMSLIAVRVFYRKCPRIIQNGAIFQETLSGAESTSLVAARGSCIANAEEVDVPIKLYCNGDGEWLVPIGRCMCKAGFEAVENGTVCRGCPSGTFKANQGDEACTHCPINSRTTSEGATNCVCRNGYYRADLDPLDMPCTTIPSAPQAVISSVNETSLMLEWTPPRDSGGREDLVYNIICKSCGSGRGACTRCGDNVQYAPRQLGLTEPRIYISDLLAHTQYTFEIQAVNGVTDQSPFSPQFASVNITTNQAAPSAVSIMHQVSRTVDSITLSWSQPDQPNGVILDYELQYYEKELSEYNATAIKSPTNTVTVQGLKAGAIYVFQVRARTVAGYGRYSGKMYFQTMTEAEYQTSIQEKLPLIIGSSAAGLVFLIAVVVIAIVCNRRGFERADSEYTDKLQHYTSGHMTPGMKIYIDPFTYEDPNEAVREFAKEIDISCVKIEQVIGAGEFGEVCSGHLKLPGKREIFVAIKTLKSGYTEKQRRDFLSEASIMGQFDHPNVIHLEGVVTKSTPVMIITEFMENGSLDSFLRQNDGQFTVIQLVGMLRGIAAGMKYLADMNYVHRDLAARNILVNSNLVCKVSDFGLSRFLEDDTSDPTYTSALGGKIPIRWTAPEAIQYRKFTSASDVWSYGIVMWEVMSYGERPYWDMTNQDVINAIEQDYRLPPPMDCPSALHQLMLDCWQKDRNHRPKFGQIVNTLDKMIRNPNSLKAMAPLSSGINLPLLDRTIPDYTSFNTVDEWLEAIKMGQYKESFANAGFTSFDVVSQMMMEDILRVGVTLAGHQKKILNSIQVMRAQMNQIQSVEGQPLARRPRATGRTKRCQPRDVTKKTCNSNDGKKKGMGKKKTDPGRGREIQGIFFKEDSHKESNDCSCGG
Experiment: as above

Row | Sequence | phosphorylation enrichment
67 | KNNDGYTDFAE [MCFD2_Y135_I136T_YF] | 0.594
68 | LITTLYISFLG [KCNQ1_Y267_G269S] | 0.784
69 | FKEIVYAVSSD [DCX_Y70_G67E] | 0.644
70 | RGKDSYETSQL [SPP1_Y225] | 0.529
71 | LKKLEYLNLAL [LRRC6_Y70] | 0.987
72 | QNAGDYFDLFG [PTPN11_Y62_T59A_YF] | 16.2
73 | QSHKVYVQHLL [POR_Y604] | 0.572
74 | IHSGIYYKPES [L2HGDH_Y102] | 2.02
75 | TEAEPYFCSLR [NPHS1_Y1138_R1140C_YF] | 0.615
76 | PDNEPYIFKVF [PIK3AP1_Y553] | 0.787
77 | LKGQVYILVRE [ASS1_Y359_G362V] | 0.652
78 | RNAAEYLLSSG [ABL1_Y139] | 0.345
79 | EDGCIYPGTIA [SMN1_Y109_A111G] | 0.613
80 | VNKIFHPDFIV [LIG3_Y768_Y768H_YF] | 0.454
81 | ALKWGYTVKGI [OAT_Y158_R154L] | 0.547
82 | GISDEYHVIRH [GCDH_Y398] | 0.475
83 | DFFDLYGGQKF [PTPN11_Y66_E69Q_YF] | 0.662

Row | Sequence | phosphorylation enrichment
84 | FPLAEYTEVKT [ALDH1A3_Y497_A493P_YF] | 0.575
85 | VSSSDYFSFVL [USP24_Y2138_Y2134S] | 3.25
86 | QEGPEYWDQNT [HLA-A_Y83_E87N] | 0.719
87 | LSDGPYSNSFE [EPOR_Y485_P488S_YF] | 1.11
88 | SSMIDYNTLEK [MYOC_Y479_P481T] | 0.506
89 | GEDEPYSEPYA [APBA1_Y183] | 0.673
90 | NWGKKYPTCNS [PTPRZ1_Y53] | 0.558
91 | HEVHIYEKSGA [ARPC1B_Y35] | 0.611
92 | FSAPNYCYRCG [PPP2CA_Y265] | 0.455
93 | YQSKHYACIRQ [TIMP3_Y182] | 0.451
94 | HNVAIYEGFAL [ACTC1_Y168_P166A_YF] | 11.2
95 | ILGTYYETGSI [PAX2_Y73_R71T] | 2.19
96 | ILGTFYETGSI [PAX2_Y73_R71T_YF] | 0.541
97 | FESPRYLQVHI [FANCA_Y488] | 0.461
98 | REEIKYMLWLS [OTC_Y55_G50R] | 0.992
99 | ANVKWYRSGRE | 0.425

Molecular target: FGFR1 (UniProt P11362)
Sequence (P11362 whole entry, looked up): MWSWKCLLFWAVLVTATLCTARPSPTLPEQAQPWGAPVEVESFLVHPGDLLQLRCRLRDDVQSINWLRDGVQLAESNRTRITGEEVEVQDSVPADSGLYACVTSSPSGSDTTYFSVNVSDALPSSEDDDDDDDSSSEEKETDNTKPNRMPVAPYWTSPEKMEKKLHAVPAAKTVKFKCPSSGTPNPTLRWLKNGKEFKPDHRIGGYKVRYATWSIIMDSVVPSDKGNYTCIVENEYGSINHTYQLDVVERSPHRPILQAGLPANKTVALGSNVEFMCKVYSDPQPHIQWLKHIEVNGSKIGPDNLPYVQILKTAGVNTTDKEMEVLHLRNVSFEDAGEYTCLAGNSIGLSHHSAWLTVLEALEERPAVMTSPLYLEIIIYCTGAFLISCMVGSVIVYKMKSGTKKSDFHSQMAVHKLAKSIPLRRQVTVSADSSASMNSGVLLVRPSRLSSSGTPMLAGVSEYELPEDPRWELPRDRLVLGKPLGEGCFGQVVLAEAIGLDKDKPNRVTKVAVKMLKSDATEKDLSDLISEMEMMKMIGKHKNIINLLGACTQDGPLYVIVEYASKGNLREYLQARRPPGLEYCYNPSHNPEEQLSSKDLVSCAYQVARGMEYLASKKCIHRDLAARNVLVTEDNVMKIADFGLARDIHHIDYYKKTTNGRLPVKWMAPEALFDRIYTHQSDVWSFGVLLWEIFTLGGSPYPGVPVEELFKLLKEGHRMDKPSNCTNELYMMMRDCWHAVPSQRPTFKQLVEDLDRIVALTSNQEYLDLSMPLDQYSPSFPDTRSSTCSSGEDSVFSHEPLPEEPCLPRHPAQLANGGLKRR
Experiment: as above

Row | Sequence | phosphorylation enrichment
100 | KNNDGYTDFAE [MCFD2_Y135_I136T_YF] | 0.559
101 | LITTLYISFLG [KCNQ1_Y267_G269S] | 0.71
102 | FKEIVYAVSSD [DCX_Y70_G67E] | 0.723
103 | RGKDSYETSQL [SPP1_Y225] | 0.632
104 | LKKLEYLNLAL [LRRC6_Y70] | 1.36
105 | QNAGDYFDLFG [PTPN11_Y62_T59A_YF] | 25.5
106 | QSHKVYVQHLL [POR_Y604] | 0.867
107 | IHSGIYYKPES [L2HGDH_Y102] | 1.53
108 | TEAEPYFCSLR [NPHS1_Y1138_R1140C_YF] | 0.551
109 | PDNEPYIFKVF [PIK3AP1_Y553] | 1.16
110 | LKGQVYILVRE [ASS1_Y359_G362V] | 0.481
111 | RNAAEYLLSSG [ABL1_Y139] | 0.456
112 | EDGCIYPGTIA [SMN1_Y109_A111G] | 0.553
113 | VNKIFHPDFIV [LIG3_Y768_Y768H_YF] | 0.419
114 | ALKWGYTVKGI [OAT_Y158_R154L] | 0.426
115 | GISDEYHVIRH [GCDH_Y398] | 4.48
116 | DFFDLYGGQKF [PTPN11_Y66_E69Q_YF] | 0.609

Row | Sequence | phosphorylation enrichment
117 | FPLAEYTEVKT [ALDH1A3_Y497_A493P_YF] | 0.671
118 | VSSSDYFSFVL [USP24_Y2138_Y2134S] | 12.3
119 | QEGPEYWDQNT [HLA-A_Y83_E87N] | 0.711
120 | LSDGPYSNSFE [EPOR_Y485_P488S_YF] | 1.07
121 | SSMIDYNTLEK [MYOC_Y479_P481T] | 0.401
122 | GEDEPYSEPYA [APBA1_Y183] | 0.516
123 | NWGKKYPTCNS [PTPRZ1_Y53] | 0.459
124 | HEVHIYEKSGA [ARPC1B_Y35] | 0.673
125 | FSAPNYCYRCG [PPP2CA_Y265] | 0.446
126 | YQSKHYACIRQ [TIMP3_Y182] | 0.52
127 | HNVAIYEGFAL [ACTC1_Y168_P166A_YF] | 0.56
128 | ILGTYYETGSI [PAX2_Y73_R71T] | 9.71
129 | ILGTFYETGSI [PAX2_Y73_R71T_YF] | 0.582
130 | FESPRYLQVHI [FANCA_Y488] | 0.534
131 | REEIKYMLWLS [OTC_Y55_G50R] | 0.961
132 | ANVKWYRSGRE | 0.46
